{"source": "patent US20170306033A1", "about": "(Amgen, published 2017)", "binders": {"B1": {"name": "iPS:327878 (bispecific antibody, human IgG1, kappa, lambda, N297G)", "light 1": "DIQMTQSPSSLSASVGDRITITCRASQSISRYLNWYQQKPGKAPKLLIYAASSLQSGIPSRFSGSGSGTDFTLTINSLQPEDFATYFCQQSYSPPFTFGQGTKVDIKRTVAAPSVFIFPPSDEQLKSGTASVVCLLNNFYPREAKVQWKVDNALQSGNSQESVTEQDSKDSTYSLESTLTLSKADYEKHKVYACEVTHQGLSSPVTKSFNRGEC", "heavy 1": "not shown", "light 2": "QSVLTQPPSVSAAPGQKVTISCSGSSSNIGNNYVSWYQQLPGTAPKLLIYDNNKRPSGIPDRFSGSKSGTSTTLGITGLQTGDEADYYCGTWDSRLSAVVFGGGTKLTVLGQPKANPTVTLFPPSSEELQANKATLVCLISDFYPGAVTVAWKADGSPVKAGVETTKPSKQSNNKYAAKSYLSLTPEQWKSHRSYSCQVTHEGSTVEKTVAPTECS", "heavy 2": "QVQLVESGGGVVQPGRSLRLSCAASGFTFSSFGMHWVRQAPGKGLEWVAVISFDGSIKYSVDSVKGRFTISRDNSKNTLFLQMNSLRAEDTAVYYCARDRLNYYESSGYYHYKYYGMAVWGQGTTVTVSSASTKGPSVFPLAPSSKSTSGGTAALGCLVKDYFPEPVTVSWNSGALTSGVHTFPAVLQSSGLYSLESVVTVPSSSLGTQTYICNVNHKPSNTKVDKKVEPKSCDKTHTCPPCPAPELLGGPSVFLFPPKPKDTLMISRTPEVTCVVVDVSHEDPEVKFNWYVDGVEVHNAKTKPCEEQYGSTYRCVSVLTVLHQDWLNGKEYKCKVSNKALPAPIEKTISKAKGQPREPQVYTLPPSRKEMTKNQVSLTCLVKGFYPSDIAVEWESNGQPENNYKTTPPVLKSDGSFFLYSKLTVDKSRWQQGNVFSCSVMHEALHNHYTQKSLSLSPGK"}, "B2": {"name": "iPS:327881 (bispecific antibody, human IgG1, kappa, lambda, N297G)", "light 1": "B1 light 1", "heavy 1": "not shown", "light 2": "B1 light 2", "heavy 2": "B1 heavy 2 with E370K"}, "B3": {"name": "iPS:327880 (bispecific antibody, human IgG1, kappa, lambda, N297G)", "light 1": "not shown", "heavy 1": "not shown", "light 2": "B1 light 2 with G103K", "heavy 2": "B1 heavy 2 with G44E"}, "B4": {"name": "iPS:327872 (bispecific antibody, human IgG1, kappa, N297G)", "light 1": "B1 light 1", "heavy 1": "not shown", "light 2": "EIVLTQSPGTLSLSPGERATLSCRASQSVSSGYLTWYQQKPGQAPRLLIYGASSRATGIPDRFSGSGSGTDFTLTISRLEPEDFAVYYCQQYGNSLSRFGQGTKLEIKRTVAAPSVFIFPPSDEQLKSGTASVVCLLNNFYPREAKVQWKVDNALQSGNSQESVTEQDSKDSTYSLKSTLTLSKADYEKHKVYACEVTHQGLSSPVTKSFNRGEC", "heavy 2": "not shown"}, "B5": {"name": "iPS:327879 (bispecific antibody, human IgG1, kappa, lambda, N297G)", "light 1": "not shown", "heavy 1": "not shown", "light 2": "B1 light 2", "heavy 2": "B1 heavy 2"}, "B6": {"name": "iPS:327882 (bispecific antibody, human IgG1, kappa, lambda, N297G)", "light 1": "not shown", "heavy 1": "not shown", "light 2": "B1 light 2", "heavy 2": "B1 heavy 2 with E370K"}, "B7": {"name": "iPS:327891 (bispecific antibody, human IgG1, kappa, lambda, N297G)", "light 1": "B1 light 1", "heavy 1": "not shown", "light 2": "B1 light 2 with T72A, G75A", "heavy 2": "B1 heavy 2 with E105D, E370K"}, "B8": {"name": "iPS:327892 (bispecific antibody, human IgG1, kappa, lambda, N297G)", "light 1": "not shown", "heavy 1": "not shown", "light 2": "B1 light 2 with T72A, G75A", "heavy 2": "B1 heavy 2 with E105D, E370K"}, "B9": {"name": "iPS:327874 (bispecific antibody, human IgG1, kappa, N297G)", "light 1": "not shown", "heavy 1": "not shown", "light 2": "B4 light 2", "heavy 2": "not shown"}, "B10": {"name": "iPS:326666 (bispecific antibody, human IgG2, kappa)", "light 1": "not shown", "heavy 1": "QVQLQESGPGLVKPSQTLSLTCTVSGGSISSGGYYWSWIRQHPGKGLEWIGYIYYSGNTYYNPSLKSRVTISGDTSKNQFSLKLRSVTAADTAVYYCTRGGAARGMDVWGQGTTVTVSSASTKGPSVFPLAPCSRSTSESTAALGCLVKDYFPEPVTVSWNSGALTSGVHTFPAVLQSSGLYSLKSVVTVPSSNFGTQTYTCNVDHKPSNTKVDKTVERKCCVECPPCPAPPVAGPSVFLFPPKPKDTLMISRTPEVTCVVVDVSHEDPEVQFNWYVDGVEVHNAKTKPREEQFNSTFRVVSVLTVVHQDWLNGKEYKCKVSNKGLPAPIEKTISKTKGQPREPQVYTLPPSREEMTKNQVSLTCLVDGFYPSDIAVEWESNGQPENNYDTTPPMLDSDGSFFLYSDLTVDKSRWQQGNVFSCSVMHEALHNHYTQKSLSLSPGK", "light 2": "B4 light 2", "heavy 2": "QVQLVESGGGVVQPGRSLRLSCAASGFTFSSYGMHWVRQAPGKGLEWVAVIWYDGSNKYYADSVKGRFIISRDKSKNTLYLQMNSLRAEDTAVYYCARAGGIAAAGLYYYYGMDVWGQGTTVTVSSASTKGPSVFPLAPCSRSTSESTAALGCLVKDYFPEPVTVSWNSGALTSGVHTFPAVLQSSGLYSLESVVTVPSSNFGTQTYTCNVDHKPSNTKVDKTVERKCCVECPPCPAPPVAGPSVFLFPPKPKDTLMISRTPEVTCVVVDVSHEDPEVQFNWYVDGVEVHNAKTKPREEQFNSTFRVVSVLTVVHQDWLNGKEYKCKVSNKGLPAPIEKTISKTKGQPREPQVYTLPPSRKKMTKNQVSLTCLVKGFYPSDIAVEWESNGQPENNYKTTPPMLKSDGSFFLYSKLTVDKSRWQQGNVFSCSVMHEALHNHYTQKSLSLSPGK"}}, "note": "Where a chain is given by its changes, count along the chain named.", "data": [{"target": "T1, human PAC1 receptor (human, UniProt P41586 21-468)", "T1 sequence": "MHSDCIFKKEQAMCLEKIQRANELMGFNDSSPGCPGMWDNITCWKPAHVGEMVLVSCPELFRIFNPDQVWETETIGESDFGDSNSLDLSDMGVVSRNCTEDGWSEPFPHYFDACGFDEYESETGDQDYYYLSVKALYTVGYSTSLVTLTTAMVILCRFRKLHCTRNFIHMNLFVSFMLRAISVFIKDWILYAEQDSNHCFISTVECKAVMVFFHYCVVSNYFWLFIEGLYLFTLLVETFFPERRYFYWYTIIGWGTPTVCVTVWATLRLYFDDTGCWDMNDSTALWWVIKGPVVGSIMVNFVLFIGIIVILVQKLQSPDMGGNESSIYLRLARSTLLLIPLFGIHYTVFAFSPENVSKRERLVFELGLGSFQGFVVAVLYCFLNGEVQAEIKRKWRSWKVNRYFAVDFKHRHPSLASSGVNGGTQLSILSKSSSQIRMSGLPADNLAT", "assay": "cell-based or functional assay", "units": {"% inhibition of human PAC1": "%"}, "values": [{"binder": "B1", "% inhibition of human PAC1": 42}, {"binder": "B2", "% inhibition of human PAC1": 16}, {"binder": "B3", "% inhibition of human PAC1": 15}, {"binder": "B4", "% inhibition of human PAC1": 40}, {"binder": "B5", "% inhibition of human PAC1": 19}, {"binder": "B6", "% inhibition of human PAC1": 13}, {"binder": "B7", "% inhibition of human PAC1": 78}, {"binder": "B8", "% inhibition of human PAC1": 33}, {"binder": "B9", "% inhibition of human PAC1": 5}, {"binder": "B10", "% inhibition of human PAC1": 15}]}, {"target": "human CGRP receptor (human, UniProt Q16602 23-461; O60894 27-148)", "sequence (Q16602 23-461 limits assumed, chain 1 of 2)": "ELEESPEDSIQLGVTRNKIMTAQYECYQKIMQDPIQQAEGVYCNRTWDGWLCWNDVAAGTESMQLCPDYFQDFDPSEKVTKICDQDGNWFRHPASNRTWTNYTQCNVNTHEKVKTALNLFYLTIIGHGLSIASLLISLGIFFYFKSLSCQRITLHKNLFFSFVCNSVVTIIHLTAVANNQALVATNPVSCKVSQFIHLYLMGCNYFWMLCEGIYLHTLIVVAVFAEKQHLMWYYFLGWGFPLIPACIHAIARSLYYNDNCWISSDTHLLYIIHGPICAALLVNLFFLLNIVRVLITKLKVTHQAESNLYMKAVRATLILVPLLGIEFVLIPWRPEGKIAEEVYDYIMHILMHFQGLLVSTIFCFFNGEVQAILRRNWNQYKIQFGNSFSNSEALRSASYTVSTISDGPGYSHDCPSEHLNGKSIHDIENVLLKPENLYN", "sequence (O60894 27-148 limits assumed, chain 2 of 2)": "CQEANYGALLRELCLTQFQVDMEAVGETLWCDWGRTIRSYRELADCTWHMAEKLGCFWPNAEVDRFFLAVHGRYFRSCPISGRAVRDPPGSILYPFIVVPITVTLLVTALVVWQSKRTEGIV", "assay": "cell-based or functional assay", "units": {"% inhibition of human CGRPR": "%"}, "values": [{"binder": "B1", "% inhibition of human CGRPR": 75}, {"binder": "B2", "% inhibition of human CGRPR": 76}, {"binder": "B3", "% inhibition of human CGRPR": 87}, {"binder": "B4", "% inhibition of human CGRPR": 80}, {"binder": "B5", "% inhibition of human CGRPR": 81}, {"binder": "B6", "% inhibition of human CGRPR": 83}, {"binder": "B7", "% inhibition of human CGRPR": 80}, {"binder": "B8", "% inhibition of human CGRPR": 88}, {"binder": "B9", "% inhibition of human CGRPR": 95}, {"binder": "B10", "% inhibition of human CGRPR": 74}]}]}
